Experimental data as given in PMC3861672.

Target: Fps1 (UniProt P23900)
Assay: BiFC, split CFP
Conditions: reference: no sorbitol

other: percent of cells with detectable fluorescence: stronger; reference 27.6
Substance: Hog1 (from UniProt P32485) 1 M sorbitol, 5 min
